Here are results for one substance from publication PMC2140025.

The assay addresses F-actin (rat (endogenous in MTLn3)) (UniProt P60711). Put plainly: FLIP.

“GFP-cofilin (from UniProt P45592 1-166) (natural protein)”: the tau of the slow FLIP component (assigned to F-actin-bound cofilin) stood at 26 s.
